Source: the supplement of paper PMC9170038

Test system: MS2 coat protein
Assay: apparent KD of MS2 coat protein; designed switch direction (-1 OFF switch, 1 ON switch): -1; higher = weaker reporter binding
Method in brief: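 The buffer was Tris-HCl pH 7.5 with KCl, MgCl2, BSA, DTT, tRNA and Tween-20. In it, SNAP-549-labelled MS2 coat protein was titrated in doubling steps from 0.7 or 1.5 nM to 3 µM over chip-bound RNA switches transcribed by stalled E. coli RNA polymerase on Illumina chips. Apparent KD is the per-design median over clusters of curve fits to normalised fluorescence.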

[1] = input ligand: microRNA oligo, concentration not stated
[2] = Eterna round: R95, input ligand: microRNA oligo, concentration not stated
[3] = Eterna round: R95, input ligand: FMN 200 uM
[4] = Eterna round: R95, input ligand: none

## CCUGCGGACAAAGGAUAUUGCGGUGGCCGGCUCGGCGUACCGAGCCUACAUGAGGAUCACCCAUGUAAGAAGGUUGUCGUUGGU [JL ViennaUCT Qudice mod] (Eterna round: R96, puzzle: Exclusion NG 2)
Input ligand: FMN 200 uM
  apparent KD of MS2 coat protein: 0.186 µM
[1]
  apparent KD of MS2 coat protein: 0.0269 µM
Input ligand: none
  apparent KD of MS2 coat protein: 0.0335 µM

## AGCCUAGCAGGAUAUGCCCGGGAUAACAUGAGGAUCACCCAUGUGACCGAUUGAUGUCUUGCAGAAGGGCUAGGGA [JL-EX5-4.02 ViennaUCT mod] (Eterna round: R97, puzzle: Exclusion 5)
Input ligand: FMN 200 uM
  apparent KD of MS2 coat protein: 0.0584 µM
Input ligand: none
  apparent KD of MS2 coat protein: 0.0157 µM

## AUUUUGUCAGGAUAUGAGUAGUAGGAUGAGAGUGCUACUACUUAGAAGGGACAUGAGGAUCACCCAUGUCUUCC [Bring Us a Shrubbery-06] (puzzle: Exclusion 4)
[2]
  apparent KD of MS2 coat protein: 0.0138 µM

## AAUUCGCAAGCGAGAUCCCACAUGAGGAUCACCCAUGUGCUCGUCUUAUAAGGUACUGUGACGAAAGUCACGGUACC [Mat - Sensor, turn-off var - Eli Mod - D85] (Eterna round: R97, puzzle: Sensor, turn-off variant 1)
Input ligand: FMN 200 uM
  apparent KD of MS2 coat protein: 0.0162 µM
Input ligand: none
  apparent KD of MS2 coat protein: 0.0171 µM

## AUAAUGUGAGGAUAUCAGUCGACUAGCUUCGGCUAGUCGACUGAGAAGGCACAUGAGGAUCACCCAUGUGUUUC [E4/15-A1] (Eterna round: R97, puzzle: Exclusion 4)
Input ligand: FMN 200 uM
  apparent KD of MS2 coat protein: 0.0417 µM
Input ligand: none
  apparent KD of MS2 coat protein: 0.0187 µM

## AGUCGAAAGACCCACAUGGACAUGAGGAUCACCCAUGUGCAAGCCUUUUGCUCGUCAGCUAGGUCAAAAGACCUAGC [JL Omei mod 1] (Eterna round: R97, puzzle: Sensor, turn-off variant 1)
Input ligand: FMN 200 uM
  apparent KD of MS2 coat protein: 0.655 µM
Input ligand: none
  apparent KD of MS2 coat protein: 0.813 µM

## AAGACACAUGAGGAUCACCCAUGUGAGGAUAUUCGAUGCUGAGCGUAAGCUUAGUAUCGGAGAAGGCACAAAGG [Salishxclusion 7 - Jieux - Exclusion 1] (Eterna round: R97, puzzle: Exclusion 1)
Input ligand: FMN 200 uM
  apparent KD of MS2 coat protein: 0.119 µM
Input ligand: none
  apparent KD of MS2 coat protein: 0.0398 µM

## CUCAAAAGUCGGUUUACACACAUGAGGAUCACCCAUGUAAGCAAACAUAUAGGCUCUACGAUUUGCUCGCUCUUAUA [Eternabot (L1) Solution 34] (Eterna round: R97, puzzle: Sensor, turn-off variant 1)
Input ligand: FMN 200 uM
  apparent KD of MS2 coat protein: 0.0135 µM
Input ligand: none
  apparent KD of MS2 coat protein: 0.0132 µM

## CCAUAUAACUGAGGAUAUGAUCACCACUAACAUUCAGAAGGCAGACAUGAGGAUCACCCAUGUGAUUUCUCAAUAUUAUACAUC [Prohibition 76 - Jieux - Exclusion NG 1] (Eterna round: R96, puzzle: Exclusion NG 1)
[1]
  apparent KD of MS2 coat protein: 0.375 µM

## AGUACUAACACGAAAGUGUUAGUACAAUAAGCUUGUGAAACAUGAGGAUCACCCAUGUCCUCAUCAGCUCGUCUUAU [salish99_TOv2_r3_052] (puzzle: Sensor v3, turn-off variant 2)
[3]
  apparent KD of MS2 coat protein: 0.124 µM
[2]
  apparent KD of MS2 coat protein: 0.409 µM
[4]
  apparent KD of MS2 coat protein: 0.191 µM

## GAUUAUGCGAGCUUUAGGGACAUGAGGAUCACCCAUGUUCGUCUUAUUGGUCUGGAUACACUGACAUACCUAAAUCU [JMF 60] (puzzle: Sensor v3, turn-off variant 1)
[3]
  apparent KD of MS2 coat protein: 0.0168 µM
[2]
  apparent KD of MS2 coat protein: 0.0226 µM
[4]
  apparent KD of MS2 coat protein: 0.0184 µM

## AUUUAGAGAGGAUAUAUAAUGUGAAACAUGAGGAUCACCCAUGUAAUAUUAUGGAUGUAAAUAGAAGGCUCAUUUA [Mat - Exclusion 5 - JL mod - D5] (puzzle: Exclusion 5)
[2]
  apparent KD of MS2 coat protein: 0.0302 µM

## AAUAAUUGUGACUUGGGUGACAUGAGGAUCACCCAUGUUACAAGCUUGUUGCUCGUCUUAUAAUUAACCCAUGUCAC [LRO Sensor-off var1-24 mod of Stov1-13-A1 by Brourd] (Eterna round: R97, puzzle: Sensor, turn-off variant 1)
Input ligand: FMN 200 uM
  apparent KD of MS2 coat protein: 0.0211 µM
Input ligand: none
  apparent KD of MS2 coat protein: 0.0219 µM

## UUUUAACAUGAGGAUCACCCAUGUGAGGAUAUCGAAAUUUAUAUUAAUAUUUUUAUUUCGAGAAGGCACAUUUU [JMF 73] (puzzle: Exclusion 1)
[2]
  apparent KD of MS2 coat protein: 0.138 µM

## AAGACACAUGAGGAUCACCCAUGUGAGGAUAUGCGAUGCUAAGCGUAAGCUUAGUAUCGCAGAAGGCACAAAGG [Salishxclusion 4 - Jieux - Exclusion 1] (Eterna round: R97, puzzle: Exclusion 1)
Input ligand: FMN 200 uM
  apparent KD of MS2 coat protein: 0.0769 µM
Input ligand: none
  apparent KD of MS2 coat protein: 0.064 µM

## AGCAGACGAGGAUAUGAUAAUUAAUACAUGAGGAUCACCCAUGUAAUACUGAUCGAUAGAUCAGAAGGCGUCUGCU [E5/3-A2] (Eterna round: R97, puzzle: Exclusion 5)
Input ligand: FMN 200 uM
  apparent KD of MS2 coat protein: 0.0147 µM
Input ligand: none
  apparent KD of MS2 coat protein: 0.0164 µM

## UGAACCCAUGUUAGGAUAUCAGGCCGAGGAAGUUCUGAGAAGGGACAUGAGGAUCACCCAUGUAUAAAAGAAAC [Veontiinge] (puzzle: Brourd's mod of Exclusion 4)
[2]
  apparent KD of MS2 coat protein: 0.0636 µM

## AGCUGUGGCCGAGGAUAUCCACAUGAGGAUCACCCAUGUUGAUACGCCGUUAGGCGAUAUAGAAGGGAGAAGGCGGUCUCAGCA [Eli eng2 - 050] (Eterna round: R96, puzzle: Exclusion NG 2)
Input ligand: FMN 200 uM
  apparent KD of MS2 coat protein: 0.00784 µM
[1]
  apparent KD of MS2 coat protein: 0.00726 µM
Input ligand: none
  apparent KD of MS2 coat protein: 0.0137 µM

## GCGCAGUCAGGAUAUGCCGGAUAGGAUCACCCUGUCCAAAGGCAGAAGGGACAUGAGGAUCACCCAUGUGGCGC [e4e Mirror Pins] (puzzle: Exclusion 4)
[3]
  apparent KD of MS2 coat protein: 0.0222 µM
[2]
  apparent KD of MS2 coat protein: 0.0177 µM
[4]
  apparent KD of MS2 coat protein: 0.0168 µM

## GAGGGUUAAGGAUAUACAUGAGGAUCACCCAUGUAUGGCAAGCCAUAAUCCUCAUUAAGUAGAAGGUAACCUUC [Edederle] (puzzle: Exclusion 3)
[2]
  apparent KD of MS2 coat protein: 0.0118 µM

## AACGUGCUGCGAGGAUAUACAUGAGGAUCACCCAUGUGGAUGUCUGAGGCAAAGCCUCAGACAAUGUAGAAGGCGCAGUACGAA [Mat - Exclusion NG 2 - Mod of JL - D57] (Eterna round: R96, puzzle: Exclusion NG 2)
Input ligand: FMN 200 uM
  apparent KD of MS2 coat protein: 0.0725 µM
[1]
  apparent KD of MS2 coat protein: 0.0187 µM
Input ligand: none
  apparent KD of MS2 coat protein: 0.0196 µM

## CAGUACUGAGGAUAUACAUGAGGAUCACCCAUGUGUUCCAGCUAGGAAACUAGCUAAAGUAGAAGGCAGUACUG [salish99_ex3_r3_092x] (Eterna round: R96, puzzle: Exclusion 3)
[1]
  apparent KD of MS2 coat protein: 0.0177 µM

## GACAUCGCAGGAUAUUAGGGUUUGUACAUGAGGAUCACCCAUGUUAAUUGGGUUAAUGUUUAAGAAGGGCGGUGUC [JR_EX5_Sub017] (Eterna round: R97, puzzle: Exclusion 5)
Input ligand: FMN 200 uM
  apparent KD of MS2 coat protein: 0.528 µM
Input ligand: none
  apparent KD of MS2 coat protein: 0.383 µM

## GGAUCACAUGUCAGGAUAUGCUGGUCCUUGGAUCAGCAGAAGGGACAUGAGGAUCACCCAUGUCAUGAAGAUCC [Eli bmx4 4.80] (Eterna round: R97, puzzle: Brourd's mod of Exclusion 4)
Input ligand: FMN 200 uM
  apparent KD of MS2 coat protein: 1.02 µM
Input ligand: none
  apparent KD of MS2 coat protein: 0.139 µM

## AGGUAACAUGAGGAUCACCCAUGUCAGGAUAUCAGGAAGAUUAGAAUAGAGUAGAGGAUGAGAAGGGACUAUAU [Excluse me! 18- Jieux - Exclusion 1] (Eterna round: R96, puzzle: Exclusion 1)
[1]
  apparent KD of MS2 coat protein: 0.0247 µM

## AAUUAUUAUUGAGGAUAUCGUAUUGAAAUAAUAUGAGAAGGCGGGAUAAACAUGAGGAUCACCCAUGUGAGCCUGAUGCUUGUG [Ex NG1 #39] (Eterna round: R96, puzzle: Exclusion NG 1)
[1]
  apparent KD of MS2 coat protein: 0.0133 µM
